US20220184221A1 (NUVOBIO, published 2022)
Where no end group is shown, it is not given here. [ ]: non-standard residue; d: D form. Nle = CCCC[C@H](N)C(=O)O

B1: EP4 (peptide)
peptide: TEDSKTHHH
modifications: also: fluorescein label in FP assay, end not given here
notes: Fluorescein-labelled in the fluorescence polarization assay; also called EP4 peptide

Each binder was assayed against T1, recombinant KDM5C (Homo sapiens (Human), UniProt P41229 1-765) (assay: OPAL peptide arrays on cellulose probed with 1 uM His-tagged KDM5C, anti-His-HRP chemiluminescence;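 further: binding of target protein to each arrayed peptide after overnight incubation at 4 °C, read as densitometric chemiluminescence signal intensity per spot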).
T1 construct: Expressed in SF9 cells from baculovirus, purified on Ni-NTA and detected with an anti-His antibody; also called KDM5C-His6; JARID1CA-c022; not shown: His tag (KDM5C-His6, vector pFB-CT10HF-LIC)
T1 sequence: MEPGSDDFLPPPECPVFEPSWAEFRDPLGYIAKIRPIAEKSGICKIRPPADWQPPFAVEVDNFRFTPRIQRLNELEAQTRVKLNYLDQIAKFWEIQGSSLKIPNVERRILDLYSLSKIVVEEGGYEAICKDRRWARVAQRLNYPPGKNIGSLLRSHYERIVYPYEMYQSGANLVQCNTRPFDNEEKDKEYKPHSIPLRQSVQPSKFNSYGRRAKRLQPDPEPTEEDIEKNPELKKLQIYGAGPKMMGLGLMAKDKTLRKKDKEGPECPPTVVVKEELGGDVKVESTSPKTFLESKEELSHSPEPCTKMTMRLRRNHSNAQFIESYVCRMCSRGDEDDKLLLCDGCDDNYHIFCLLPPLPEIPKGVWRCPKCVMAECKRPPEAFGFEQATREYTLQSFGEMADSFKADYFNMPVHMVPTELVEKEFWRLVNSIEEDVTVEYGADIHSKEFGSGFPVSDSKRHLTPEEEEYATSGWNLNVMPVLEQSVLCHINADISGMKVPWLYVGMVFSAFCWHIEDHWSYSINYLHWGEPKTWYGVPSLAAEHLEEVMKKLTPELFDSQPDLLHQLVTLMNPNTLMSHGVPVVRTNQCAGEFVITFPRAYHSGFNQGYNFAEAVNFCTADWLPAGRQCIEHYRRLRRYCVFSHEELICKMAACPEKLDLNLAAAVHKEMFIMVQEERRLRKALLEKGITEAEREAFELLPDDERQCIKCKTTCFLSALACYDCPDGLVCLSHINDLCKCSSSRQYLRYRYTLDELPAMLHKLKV
TDDQKTHHH [EP13]: binds. TDTTKTHHH [EP1]: binds. TDTQKTHHH [EP2]: binds. TDTNKTHHH [EP3]: binds. TEDQKTHHH [EP5]: binds. TDTSKTHHH [EP7]: binds. TEDTKTHHH [EP8]: binds. TEEQKTHHH [EP9]: binds. TEENKTHHH [EP14]: binds. TEESKTHHH [EP15]: binds. TDSTKTHHH [EP17]: binds. TDDNKTHHH [EP20]: binds. SDQQKTHHH [EP10]: binds. SDQTKTHHH [EP12]: binds. TTQSKTHHH [EP6]: binds. TTQQKTHHH [EP11]: binds. TTQTKTHHH [EP16]: binds. SETQKTHHH [EP18]: binds. SETSKTHHH [EP19]: binds. TDDQ[Nle]THHH [EP33]: binds. TDTT[Nle]THHH [EP21]: binds. TDTQ[Nle]THHH [EP22]: binds. TDTN[Nle]THHH [EP23]: binds. TEDS[Nle]THHH [EP24]: binds. TEDQ[Nle]THHH [EP25]: binds. TDTS[Nle]THHH [EP27]: binds. TEDT[Nle]THHH [EP28]: binds. TEEQ[Nle]THHH [EP29]: binds. TEEN[Nle]THHH [EP34]: binds. TEES[Nle]THHH [EP35]: binds. TDST[Nle]THHH [EP37]: binds. TDDN[Nle]THHH [EP40]: binds. TTQS[Nle]THHH [EP26]: binds. TTQQ[Nle]THHH [EP31]: binds. TTQT[Nle]THHH [EP36]: binds. SDQQ[Nle]THHH [EP30]: binds. SDQT[Nle]THHH [EP32]: binds. SETQ[Nle]THHH [EP38]: binds. SETS[Nle]THHH [EP39]: binds. RTKQTARKSTGG [EP41]: binds. GAKRHRKVLRDNI [EP43]: binds. GAKRHR[Nle]VLRDNI [EP44]: binds.

What follows are binders tested against T1, recombinant KDM5C (assay: fluorescence polarization; fluorescein-labelled peptide, recombinant KDM5C serially diluted).
Procedure: Recombinant KDM5C protein was serially diluted in a 384-well plate, followed by the addition of fluorescein-labeled inhibitor peptide in PBS buffer. The mixtures were incubated in the dark for 30 min prior to fluorescent polarization measurements at room temperature on an EnVision Multilabel Plate Reader (PerkinElmer) with the excitation set at 480 nm and emission at 535 nm. Binding curves were generated by fitting the binding data to a hyperbolic nonlinear regression model using Prism 3.0 (GraphPad software, Inc., San Diego, Calif.), which also produced the corresponding dissociation constants (Kd).
Work on B1 yielded a Kd of 0.11 nM.
